Laboratory results from article PMC9890572.
Values joined by “and” are separate entries in the source; they are usually repeats but may differ in a detail not shown here. Equal values may be shown once.

Target: smBiT–β-arrestin2 (UniProt P32121)
Experiment: split reporter

UniProt P32121, sequence (P32121 whole entry): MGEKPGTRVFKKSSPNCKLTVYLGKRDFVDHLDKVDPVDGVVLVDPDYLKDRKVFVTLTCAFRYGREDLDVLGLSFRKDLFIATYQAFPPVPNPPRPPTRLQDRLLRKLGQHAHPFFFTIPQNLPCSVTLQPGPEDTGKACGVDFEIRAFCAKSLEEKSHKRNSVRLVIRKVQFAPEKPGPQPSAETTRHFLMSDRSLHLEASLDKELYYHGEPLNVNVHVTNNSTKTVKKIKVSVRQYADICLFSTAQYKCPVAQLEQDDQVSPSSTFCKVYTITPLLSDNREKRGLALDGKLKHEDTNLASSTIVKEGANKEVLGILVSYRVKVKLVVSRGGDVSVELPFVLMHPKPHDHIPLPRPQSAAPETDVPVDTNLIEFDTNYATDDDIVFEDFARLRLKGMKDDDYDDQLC

## Gαi-LgBiT (from UniProt P63096 1-354) (natural protein)
  other: -7.6 and -5.9
